Assay results from patent US20220404334A1, “BIOCHIP HAVING MICROCHANNEL PROVIDED WITH CAPTURING AGENT FOR PERFORMING CYTOLOGICAL ANALYSIS” (CASE WESTERN RESERVE UNIVERSITY, priority 2019, published 2022).

Assays:
[1] = tested on: heme-activated endothelial cells (HUVECs and HPMECs); assay: Endothelium-on-a-chip: sickle RBC adhesion to heme-activated endothelial cells under hypoxia; type: cell-based, human; conditions: 5 μM, N=13 subjects
Protocol: The assembled microchannels are rinsed serially with PBS, 100% ethanol, and GMBS following a 20-minute incubation. Thereafter, another washing step is performed using 100% ethanol and PBS before loading the microchannels with a fibronectin solution at a concentration of 0.2 mg/mL. Fibronectin-loaded microchannels are incubated at 37° C. for 1 hour for complete protein immobilization on the GMBS-functionalized surface. To prepare the endothelialized microchannels, human endothelial cells are seeded into fibronectin-coated microchannels at a density of 4×10^6 cells/mL and incubated for 2 hours at 37° C. and 5% CO2 to allow cell attachment and spreading, while replacing the culture medium in the microchannels every hour.
The activating agents (e.g., heme or TNF-α) are then injected into the microchannels in a serum-free medium and incubated for a pre-determined period for activation to take place. Before using the activated endothelial cells, the microfluidic channels are rinsed for at least 2 times with serum-free medium.
When using blood samples collected in Ethylenediaminetetraacetic acid (EDTA) containing vacutainers, the blood samples are first centrifuged and washed three times with PBS to isolate blood cells from plasma. When in contact with adherent endothelial cells, EDTA will induce cell detachment by inhibiting Ca^2+ ions that are necessary for cell adhesion through integrins. […]

[2] = biological target: Recombinant human ICAM-1 (Homo sapiens, UniProt P05362); assay: Microfluidic flow adhesion of HbSS RBCs to immobilized ICAM-1, inhibition experiments; type: cell-based
Protocol: ICAM-1 functionalized microchannels of the microfluidic device were connected to blood-containing syringes through 40-cm inlet tubing. A total of […] of whole blood sample was perfused into the microchannels at an approximate shear stress of 1 dyne/cm^2, corresponding to the typical shear stress observed in postcapillary venules, via a constant displacement syringe pump (New Era NE-300; New Era Pump Systems, Farmingdale, N.Y.). To remove the nonadherent cells, another syringe filled with wash buffer (1% bovine serum albumin and 0.09% sodium azide in 13 phosphate buffered saline [PBS]) was connected to the microchannels, and the buffer solution was injected at […], corresponding to a wall shear stress of 1 dyne/cm^2, until all nonadherent cells had been cleared. Phase-contrast images of the microchannel surface were obtained using an inverted microscope at 203. Quantification of ICAM-1-adherent RBCs was performed manually using Adobe Photo-shop CS5 (Adobe, San Jose, Calif.) within a rectangular field of view (fov) with a surface area of 32 mm^2.
For the inhibition studies, whole HbSS blood samples were mixed with a monoclonal mouse antibody against human α4β1 or LFA-1 at a final antibody concentration of […] and incubated at 37° C. for 1 hour prior to the adhesion experiments. As a control, samples were treated with the same concentration of isotype-control mouse immunoglobulin G1 for the same duration. Anti-human LFA-1 antibody and the isotype-control mouse immunoglobulin G were from BioLegend (San Diego, Calif.). Anti-human α4β1 antibody was purchased from Abcam (Cambridge, Mass.). To block the β2-associated adhesion pathways, a recombinant human β2 protein solution (Novus Biologicals, Centennial, Colo.) was perfused into ICAM-1-functionalized microchannels and incubated for 1 hour at 37° C. Before starting the adhesion experiments, the microchannels were rinsed 3 times with PBS. Similarly, to test the inhibitory effect of fibrinogen (Enzo Life Sciences, Farmingdale, N.Y.) or low molecular weight heparin (LMWH; AMSBIO, Cambridge, Mass.), ICAM-1-functionalized microchannels were injected with fibrinogen (range, 1-20 mg/mL) or LMWH (range, 0.1-5 mg/mL). After an hour at 37° C., the microchannels were rinsed with PBS 3 times, and adhesion was assessed as above.
Minitab 19 (Minitab, State College, Pa.) was used to analyze the results. A normality test was performed to determine whether the variables were normally distributed. Because of the largely non-normally distributed variables, Mann-Whitney U tests were used to compare 2 groups, and Kruskal-Wallis tests with Dunn's correction were used to compare multiple groups, unless stated otherwise. K-means clustering analysis was performed to identify distinct subject subpopulations based on hemolysis biomarkers. Through-out this article, the error bars represent±standard error of the mean (SEM). P<0.05 was considered statistically significant.

[3] = biological target: T1, P-selectin (Homo sapiens, UniProt P16109); assay: Detachment experiments: drug flowed over leukocytes already adherent to immobilized P-selectin; type: cell-based
T1 sequence (P16109 42-830): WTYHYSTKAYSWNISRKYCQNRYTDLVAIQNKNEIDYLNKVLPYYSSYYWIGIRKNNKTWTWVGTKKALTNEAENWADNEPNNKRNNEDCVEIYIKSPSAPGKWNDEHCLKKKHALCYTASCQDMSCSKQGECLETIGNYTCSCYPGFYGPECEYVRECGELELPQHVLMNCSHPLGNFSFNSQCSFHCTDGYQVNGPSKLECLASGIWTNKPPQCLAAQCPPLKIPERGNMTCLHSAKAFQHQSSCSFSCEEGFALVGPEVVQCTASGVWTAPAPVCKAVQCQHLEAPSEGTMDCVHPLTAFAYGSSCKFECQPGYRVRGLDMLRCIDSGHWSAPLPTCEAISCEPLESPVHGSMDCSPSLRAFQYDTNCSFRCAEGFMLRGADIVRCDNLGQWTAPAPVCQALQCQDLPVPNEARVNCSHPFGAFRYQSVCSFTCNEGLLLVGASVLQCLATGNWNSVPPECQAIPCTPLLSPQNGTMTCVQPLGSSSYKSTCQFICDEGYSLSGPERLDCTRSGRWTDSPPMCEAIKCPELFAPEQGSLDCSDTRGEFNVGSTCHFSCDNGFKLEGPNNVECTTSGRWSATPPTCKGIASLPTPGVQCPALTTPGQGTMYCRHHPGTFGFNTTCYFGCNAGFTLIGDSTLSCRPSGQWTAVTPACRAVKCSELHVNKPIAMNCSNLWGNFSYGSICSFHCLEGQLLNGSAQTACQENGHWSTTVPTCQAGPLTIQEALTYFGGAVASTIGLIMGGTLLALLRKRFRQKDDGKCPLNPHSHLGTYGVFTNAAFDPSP
Protocol: (§1) Microfluidic devices were fabricated using a lamination technique. Each microfluidic device contained 3 identical microchannels with a height of 50 μm (FIG. 6A), which were designed to recapitulate volume and flow of post-capillary venules. The microchannels were functionalized with recombinant human P-selectin (25 μg/mL) and blocked with 2% bovine serum albumin (BSA) to pre-vent non-specific adhesion. After tubing assembly, whole blood samples were mixed with Hanks' buffer modified with calcium and magnesium (1:1 v/v), and 15 μL of the diluted whole blood was injected into the microchannels using New Era NE-300 syringe pump system (Farming-dale, N.Y.) at an approximate shear rate of 1 dyne/cm^2. Non-adherent cells were rinsed out by flowing Hanks' buffer. Phase-contrast images of the microchannels with adherent leukocytes were recorded at 10× with an inverted microscope (Olympus IX83) and a camera (EXi Blue EXI-BLU-RF-M-14-C), and adherent leukocytes were manually quantified with Adobe Photoshop software (San Jose, Calif.) in a 32 mm^2 area.
Crizanlizumab (ADAKVEO®, SEG101) stock solution (10 mg/mL) was donated by Novartis (Basel, Switzerland). For the inhibition experiments, P-selectin immobilized-microchannels were pre-treated with Hanks buffer as vehicle control, or Crizanlizumab with graded concentrations of 1, 10, 100 μg/mL, or 1 mg/mL at 37° C. for 30 min. There-after, the adhesion assay was performed. Human IgG2 (Sigma Aldrich, St. Louis, Mo.), at 100 μg/mL, was included as the isotype control for Crizanlizumab. For the detachment experiments, modified microchannels with individual inlets for separately injecting blood and drug-containing buffer were designed to allow transition from washing buffer to Crizanlizumab during rinsing. […] Cell behaviors were also continuously recorded. […]
Leukocyte adhesion data were reported as mean±standard error of the mean (SEM). […] Statistical significance was determined based on a p-value<0.05 (p<0.05).

[4] = biological target: T1, P-selectin; set-up: host or cells: patients with SCD (endogenous protein in vivo); conditions: infused monthly, patients with SCD; cited from earlier work
[5] = biological target: T1, P-selectin; assay: Microfluidic whole blood assay of leukocyte adhesion to immobilized P-selectin, microchannels pre-treated with drug (inhibition experiments); type: cell-based
Protocol: as §1
Crizanlizumab (ADAKVEO®, SEG101) stock solution (10 mg/mL) was donated by Novartis (Basel, Switzerland). For the inhibition experiments, P-selectin immobilized-microchannels were pre-treated with Hanks buffer as vehicle control, or Crizanlizumab with graded concentrations of 1, 10, 100 μg/mL, or 1 mg/mL at 37° C. for 30 min. There-after, the adhesion assay was performed. Human IgG2 (Sigma Aldrich, St. Louis, Mo.), at 100 μg/mL, was included as the isotype control for Crizanlizumab. For the detachment experiments, modified microchannels with individual inlets for separately injecting blood and drug-containing buffer were designed to allow transition from washing buffer to Crizanlizumab during rinsing. Two synchronous pumps connected to these inlets were programmed such that Crizanlizumab at 10 μg/mL was injected into microchannels after Hanks buffer without a disruption in shear rate. The programmed flow rates of the two synchronous pumps over the course of the experiment are shown in FIG. 7A, which insured a constant shear rate in the microchannels. Cell behaviors were also continuously recorded. Phase contrast images of the adherent leukocytes were collected during Hanks's buffer rinse and Crizanlizumab flow for comparison.
Leukocyte adhesion data were reported as mean±standard error of the mean (SEM). Clinical variables of the study population were re-ported as mean±standard deviation (SD). Statistical analyses were per-formed with Minitab (Minitab Inc., State College, Pa.). A test for normality was initially performed on relevant variables. A paired t-test was per-formed to compare paired groups before and after Crizanlizumab treatment. Statistical significance was determined based on a p-value<0.05 (p<0.05).

[6] = pre-treatment 1 μg/mL, HbSS on-transfusion samples, N=8
[7] = pre-treatment 10 μg/mL, HbSS on-transfusion samples, N=8
[8] = pre-treatment 1 mg/mL, HbSS on-transfusion samples, N=8

Sequence of Recombinant human ICAM-1 (P05362 28-532): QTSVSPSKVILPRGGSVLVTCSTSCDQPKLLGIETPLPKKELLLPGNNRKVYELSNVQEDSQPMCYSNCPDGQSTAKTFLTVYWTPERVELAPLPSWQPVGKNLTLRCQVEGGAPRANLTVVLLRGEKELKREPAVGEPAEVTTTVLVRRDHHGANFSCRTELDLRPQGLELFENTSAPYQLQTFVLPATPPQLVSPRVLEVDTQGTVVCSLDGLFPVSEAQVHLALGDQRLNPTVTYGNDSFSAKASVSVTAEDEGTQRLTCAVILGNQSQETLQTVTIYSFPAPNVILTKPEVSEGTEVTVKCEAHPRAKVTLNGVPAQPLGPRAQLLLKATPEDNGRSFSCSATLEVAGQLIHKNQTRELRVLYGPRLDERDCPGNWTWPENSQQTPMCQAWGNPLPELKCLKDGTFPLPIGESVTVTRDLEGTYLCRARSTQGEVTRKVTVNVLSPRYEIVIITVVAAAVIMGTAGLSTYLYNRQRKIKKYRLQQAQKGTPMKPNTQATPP

With Cc1ccc(NC(=O)c2ccc(CN3CCN(C)CC3)cc2)cc1Nc1nccc(-c2cccnc2)n1 [imatinib] the “Sickle RBC adhesion to heme-activated endothelial cells (mean adhesion±SEM)” value [1] was 171±30.

In the case of fibrinogen, the “Effect on RBC adhesion to ICAM-1” value ([2]; microchannels incubated with 1 mg/mL) is reported as “did not inhibit RBC adhesion”, the Adhesion blocked ([2]; microchannels incubated with 5 mg/mL) is reported as “about 50%” and the “Effect on RBC adhesion to ICAM-1” value ([2]; microchannels treated with 1, 5, 10, 20 mg/mL, n=5) is reported as “significantly decreased RBC adhesion in a concentration-dependent manner”.

For low molecular weight heparin [LMWH], the “Effect on RBC adhesion to ICAM-1” value ([2]; preincubation of microfluidic channels (not blood)) was “had no effect”, the “Inhibition of RBC adhesion to ICAM-1” value ([2]; pretreatment of blood samples at 0.1 mg/mL) was 0.80% and the “Effect on RBC adhesion to ICAM-1” value ([2]; whole blood samples treated (1:1 v/v) at 0.1, 1, and 5 mg/mL) was “significantly blocked RBC adhesion to ICAM-1”.

For “recombinant human β2 protein: recombinant human β2 protein solution (Novus Biologicals) to block β2-associated adhesion pathways”, the “Effect on HbSS RBC adhesion to immobilized ICAM-1” value ([2]; microchannels treated with protein 1 hour 37° C., 5 experiments) was “No significant reduction”.

B1: Crizanlizumab: humanized monoclonal antibody against P-selectin (antibody, chains of the INN, looked up, V domains shown)
VH: QVQLVQSGAEVKKPGASVKVSCKVSGYTFTSYDINWVRQAPGKGLEWMGWIYPGDGSIKYNEKFKGRVTMTVDKSTDTAYMELSSLRSEDTAVYYCARRGEYGNYEGAMDYWGQGTLVTVSS
VL: DIQMTQSPSSLSASVGDRVTITCKASQSVDYDGHSYMNWYQQKPGKAPKLLIYAASNLESGVPSRFSGSGSGTDFTLTISSLQPEDFATYYCQQSDENPLTFGGGTKVEIK
In the case of B1, the “Effect of post-treatment on adherent leukocytes” value ([3]; post-treatment 10 μg/mL after leukocytes adhered) is reported as “detachment of rolling leukocytes whereas firmly attached cells remained adherent”, the “Leukocyte adhesion after introducing drug, range” value ([3]; post-treatment 10 μg/mL, N=6) is reported as 58-2388 and the “Leukocyte adhesion after introducing drug into the microchannels (mean±SEM)” value ([3]; post-treatment 10 μg/mL, N=6 (4 on-transfusion)) is reported as 719±354. The “Annual rate of VOC” value [4] was “reduced the annual rate of VOC”, the “Leukocyte adhesion (adherent leukocytes, mean±SEM)” value ([5]; isotype control comparison, 100 μg/mL, N=3) was 596±221 and the “Leukocyte adhesion (adherent leukocytes, mean±SEM)” value [5, 6] was 1535±258. The “Leukocyte adhesion, range” value [5, 6] was 257-2732, the “Leukocyte adhesion (adherent leukocytes, mean±SEM)” value [5, 7] was 1057±325 and the “Leukocyte adhesion, range” value [5, 7] was 195-2948. The “Leukocyte adhesion (adherent leukocytes, mean±SEM)” value ([5]; pre-treatment 100 μg/mL, 37° C. 30 min, HbSS on-transfusion samples, N=8, 32 mm^2 area, 1 dyne/cm^2) was 703±161, the “Leukocyte adhesion, range” value ([5]; pre-treatment 100 μg/mL, HbSS on-transfusion samples, N=8) was 131-1474 and the “Leukocyte adhesion (adherent leukocytes, mean±SEM)” value [5, 8] was 587±168. For the same molecule, the “Leukocyte adhesion, range” value [5, 8] was 81-1403, the “Leukocyte adhesion (adherent leukocytes, mean±SEM)” value ([5]; pre-treatment 1 mg/mL, non-transfusion individuals (on-hydroxyurea or supportive care), N=8) was 179±79 and the “Leukocyte adhesion, range” value ([5]; pre-treatment 1 mg/mL, non-transfusion individuals, N=8) was 39-691.
